# B1: TR3/ΔDBD: TR3 mutant with the DNA binding domain removed; used as GFP fusion (protein)
# chain: MPCIQAQYGTPAPSPGPRDHLASDPLTPEFIKPTMDLASPEAAPAAPTALPSFSTFMDGYTGEFDTFLYQLPGTVQPCSSASSSASSTSSSSATSPASASFKFEDFQVYGCYPGPLSGPVDEALSSSGSDYYGSPCSAPSPSTPSFQPPQLSPWDGSFGHFSPSQTYLVLHRLQCARGFGDWIDSILAFSRSLHSLLVDVPAFACLSALVLITDRHGLQEPRRVEELQNRIASCLKEHVAAVAGEPQPASCLSRLLGKLPELRTLCTQGLQRIFYLKLEDLVPPPPIIDKIFMDTLPF
# modifications: left off: large carriers; small tags and cut ends
# notes: used as GFP fusion
# Key:
# [1] = tested on: Bcl-2 mutants Y108K, L137A, G145A, R146Q; assay: Co-IP assay with Bcl-2 hydrophobic groove mutants in HEK293T cells; type: binding
# Chain of Bcl-2 mutants Y108K, L137A, G145A, R146Q (P10415 1-80 limits assumed, stated change not applied): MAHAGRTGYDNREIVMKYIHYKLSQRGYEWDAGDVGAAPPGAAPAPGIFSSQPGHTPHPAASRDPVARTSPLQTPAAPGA
# Method: TR3/Bcl-2 interaction assays—Reporter gene assays using NurRE-tk-CAT in CV-1 cells, and GST pull-down assay were described previously (Li, et al. 2000 Science 289, 1159-1164). For the mammalian two-hybrid assays, CV-1 cells were co-transfected with pcDNA-Gal4TAD-TR3 or pcDNA-Gal4TAD-TR3/ΔDBD and pcDNA-Gal4DBD-Bcl-2/ΔTM along with a luciferase reporter gene driven by four copies of the Gal4-binding site. The cells were harvested and reporter gene activity was measured. […] Immunoreactive products were detected by chemiluminescence with an enhanced chemiluminescence system (ECL) (Amersham).
# Binding of BH3 domain to Bcl-2 is mediated by a hydrophobic cleft formed by the BH1, BH2, and BH3 region of Bcl-2 (Sattler et al. 1997 Science 275:983-986). To determine whether TR3/ΔDBD bound to the Bcl-2 hydrophobic groove, several Bcl-2 mutants with mutations of amino acids, Tyr108, Leu137, or Arg146, critical for the formation of the hydrophobic cleft, were analyzed for their interaction with TR3/ΔDBD. […] The Bcl-2 mutants, Y108KBcl-2, L137ABcl-2 and R146QBcl-2, were analyzed for their interaction with GFP-TR3/ΔDBD in 293T cells by Co-IP assay as described in Example 2. […]
# Bcl-2 = target: T1, Bcl-2 (Homo sapiens, UniProt P10415); assay: Bcl-2 conformation by immunoprecipitation with epitope-specific antibodies; type: binding
# T1 construct: expressed in transfected cells; host or cells: HEK293T
# T1 sequence (P10415 whole entry): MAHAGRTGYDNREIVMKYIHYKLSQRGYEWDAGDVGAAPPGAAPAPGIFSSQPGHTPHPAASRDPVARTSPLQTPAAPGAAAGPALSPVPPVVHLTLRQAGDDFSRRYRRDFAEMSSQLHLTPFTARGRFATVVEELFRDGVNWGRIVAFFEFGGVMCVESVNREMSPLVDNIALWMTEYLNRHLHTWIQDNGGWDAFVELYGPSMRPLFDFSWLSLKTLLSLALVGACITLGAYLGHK
# From the text: Second, the effects of TR3/ΔDBD on Bcl-2 conformation were studied by immunoprecipitation assays.
# Calu-6 lung cancer cells = assay: DAPI apoptosis assay in Calu-6 cells; type: cell-based
# Method: Apoptosis assays—For nuclear morphological change analysis, cells were trypsinized, washed with PBS, fixed with 3.7% paraformaldehyde, and stained with DAPI (4,6-diamidino-2-phenylindole) (50 μg/ml) to visualize the nuclei by UV-microscopy. The percentages of apoptotic cells were determined by counting 300 GFP-positive cells, scoring cells having nuclear fragmentation and/or chromatin condensation.
# DAPI staining was used to study the apoptotic effect of TR3/Bcl-2 interaction. 293T cells were transfected with GFP-TR3/ΔDBD alone or together with Bcl-2. After 36 h, nuclei were stained by DAPI and nuclear fragmentation and chromatin condensation were identified. Cells were also stained with anti-Bcl-2 antibody, followed by TRITC-conjugated secondary antibody (Sigma). Bcl-2 and GFP-ΔDBD expression and nuclear morphology were visualized by fluorescence microscopy, and the two images were overlaid. […] But, when Bcl-2 was cotransfected, a significant amount of transfected cells underwent apoptosis. For example, approximately 4% of cells transfected with either TR3/ΔDBD or Bcl-2 were apoptotic, compared to 35% of cell transfected with both. […] Cotransfection of Bcl-2, however, prevented BAX-induced apoptosis in these cells (see FIG. 4). The effect of Bcl-2 on apoptotic potential of TR3/ΔDBD in lung cancer and breast cancer cells was also investigated.
molecule,measurement,setting,value
B1,binding of Bcl-2 hydrophobic groove mutants to TR3/ΔDBD (Co-IP),[1],still capable of binding
same,binding of Bcl-2 by antibody against BH3-binding pocket,Bcl-2,reduced binding
same,binding of Bcl-2 by antibody against BH3 domain,Bcl-2,enhancing binding
same,immunoprecipitation efficiency of antibody against whole Bcl-2 protein,Bcl-2,did not affect
same,apoptosis,"Calu-6 lung cancer cells; Calu-6, absence of Bcl-2",did not show any apoptotic effect
same,apoptosis,"Calu-6 lung cancer cells; Calu-6, co-expression of Bcl-2",strong induction of apoptosis

# Reference: patent US8273705B2, “Conversion of apoptotic proteins” (The Burnham Institute, priority 2002, dated 2012)
